According to paper PMC8669218 (Acta Pharmacologica Sinica, 2021):
Numbering of substitutions follows the chain as printed.

B1: extracellular domain of human DPP4 (residues 39-766), K122D (domain or fragment)
chain: SRKTYTLTDYLKNTYRLKLYSLRWISDHEYLYKQENNILVFNAEYGNSSVFLENSTFDEFGHSINDYSISPDGQFILLEYNYVDQWRHSYTASYDIYDLNKRQLITEERIPNNTQWVTWSPVGHKLAYVWNNDIYVKIEPNLPSYRITWTGKEDIIYNGITDWVYEEEVFSAYSALWWSPNGTFLAYAQFNDTEVPLIEYSFYSDESLQYPKTVRVPYPKAGAVNPTVKFFVVNTDSLSSVTNATSIQITAPASMLIGDHYLCDVTWATQERISLQWLRRIQNYSVMDICDYDESSGRWNCLVARQHIEMSTTGWVGRFRPSEPHFTLDGNSFYKIISNEEGYRHICYFQIDKKDCTFITKGTWEVIGIEALTSDYLYYISNEYKGMPGGRNLYKIQLSDYTKVTCLSCELNPERCQYYSVSFSKEAKYYQLRCSGPGLPLYTLHSSVNDKGLRVLEDNSALDKMLQNVQMPSKKLDFIILNETKFWYQMILPPHFDKSKKYPLLLDVYAGPCSQKADTVFRLNWATYLASTENIIVASFDGRGSGYQGDKIMHAINRRLGTFEVEDQIEAARQFSKMGFVDNKRIAIWGWSYGGYVTSMVLGSGSGVFKCGIAVAPVSRWEYYDSVYTERYMGLPTPEDNLDHYRNSTVMSRAENFKQVEYLLIHGTADDNVHFQQSAQISKALVDVGVDFQAMWYTDEDHGIASSTAHQHIYTHMSHFIKQCFSLP
modifications: glycosylated (sites not given)
B2: extracellular domain of human DPP4 (residues 39-766), P257A (domain or fragment)
chain: B1 chain with D84K, P219A
modifications: glycosylated (sites not given)
B3: extracellular domain of human DPP4 (residues 39-766), D243A (domain or fragment)
chain: B1 chain with D84K, D205A
modifications: glycosylated (sites not given)

Molecular target: the molecule itself
Experiment: nonreducing SDS-PAGE

Protein	binding result
B1	binds
B2	binds
B3	binds
